The data set concerns the target human alpha-synuclein (wild-type, recombinant).

B1: met proto-oncogene (hepatocyte growth factor receptor) (protein)
chain: KKRKQIKDLGSELVRYDARVHTPHLDRLVSARSVSPTTEMVSNESVDYRATFPEDQFPNSSQNGSCRQVQYPLTDMSPILTSGDSDISSPLLQNTVHIDLSALNPELVQAVQHVVIGPSSLIVHFNEVIGRGHFGCVYHGTLLDNDGKKIHCAVKSLNRITDIGEVSQFLTEGIIMKDFSHPNVLSLLGICLRSEGSPLVVLPYMKHGDLRNFIRNETHNPTVKDLIGFGLQVAKGMKYLASKKFVHRDLAARNCMLDEKFTVKVADFGLARDMYDKEYYSVHNKTGAKLPVKWMALESLQTQKFTTKSDVWSFGVLLWELMTRGAPPYPDVNTFDITVYLLQGRRLLQPEYCPDPLYEVMLKCWHPKAEMRPSFSELVSRISAIFSTFIGEHYVHVNATYVNVKCVAPYPSLLSSEDNADDEVDTRPASFWETS
For B1, the “in vitro kinase reaction, phosphorylation of alpha-synuclein” value is given as “shown to be incapable of directly phosphorylating alpha-synuclein”.

B2: PLK4 (protein)
chain: MATCIGEKIEDFKVGNLLGKGSFAGVYRAESIHTGLEVAIKMIDKKAMYKAGMVQRVQNEVKIHCQLKHPSILELYNYFEDSNYVYLVLEMCHNGEMNRYLKNRVKPFSENEARHFMHQIITGMLYLHSHGILHRDLTLSNLLLTRNMNIKIADFGLATQLKMPHEKHYTLCGTPNYISPEIATRSAHGLESDVWSLGCMFYTLLIGRPPFDTDTVKNTLNKVVLADYEMPSFLSIEAKDLIHQLLRRNPADRLSLSSVLDHPFMSRNSSTKSKDLGTVEDSIDSGHATISTAITASSSTSISGSLFDKRRLLIGQPLPNKMTVFPKNKSSTDFSSSGDGNSFYTQWGNQETSNSGRGRVIQDAEERPHSRYLRRAYSSDRSGTSNSQSQAKTYTMERCHSAEMLSVSKRSGGGENEERYSPTDNNANIFNFFKEKTSSSSGSFERPDNNQALSNHLCPGKTPFPFADPTPQTETVQQWFGNLQINAHLRKTTEYDSISPNRDFQGHPDLQKDTSKNAWTDTKVKKNSDASDNAHSVKQQNTMKYMTALHSKPEIIQQECVFGSDPLSEQSKTRGMEPPWGYQNRTLRSITSPLVAHRLKPIRQKTKKAVVSILDSEEVCVELVKEYASQEYVKEVLQISSDGNTITIYYPNGGRGFPLADRPPSPTDNISRYSFDNLPEKYWRKYQYASRFVQLVRSKSPKITYFTRYAKCILMENSPGADFEVWFYDGVKIHKTEDFIQVIEKTGKSYTLKSESEVNSLKEEIKMYMDHANEGHRICLALESIISEEERKTRSAPFFPIIIGRKPGSTSSPKALSPPPSVDSNYPTRERASFNRMVMHSAASPTQAPILNPSMVTNEGLGLTTTASGTDISSNSLKDCLPKSAQLLKSVFVKNVGWATQLTSGAVWVQFNDGSQLVVQAGVSSISYTSPNGQTTRYGENEKLPDYIKQKLQCLSSILLMFSNPTPNFH
With B2, the Fold Change in Percent Synuclein Phosphorylation (ELISA, HEK-293 overexpression) was 1 fold; the “Proportion of total synuclein that is phoshorylated at ser-129 (ELISA, HEK-293 overexpression)” value is 1.9%; the “in vitro biochemical assay, phosphorylation of synuclein” value is on record as “PLK4 exhibiting no ability to phosphorylate synuclein”.

B3: GRK4 (protein)
chain: MELENIVANSLLLKARQGGYGKKSGRSKKWKEILTLPPVSQCSELRHSIEKDYSSLCDKQPIGRRLFRQFCDTKPTLKRHIEFLDAVAEYEVADDEDRSDCGLSILDRFFNDKLAAPLPEIPPDVVTECRLGLKEENPSKKAFEECTRVAHNYLRGEPFEEYQESSYFSQFLQWKWLERQPVTKNTFRHYRVLGKGGFGEVCACQVRATGKMYACKKLQKKRIKKRKGEAMALNEKRILEKVQSRFVVSLAYAYETKDALCLVLTIMNGGDLKFHIYNLGNPGFDEQRAVFYAAELCCGLEDLQRERIVYRDLKPENILLDDRGHIRISDLGLATEIPEGQRVRGRVGTVGYMAPEVVNNEKYTFSPDWWGLGCLIYEMIQGHSPFKKYKEKVKWEEVDQRIKNDTEEYSEKFSEDAKSICRMLLTKNPSKRLGCRGEGAAGVKQHPVFKDINFRRLEANMLEPPFCPDPHAVYCKDVLDIEQFSVVKGIYLDTADEDFYARFATGCVSIPWQNEMIESGCFKDINKSESEEALPLDLDKNIHTPVSRPNRGFFYRLFRRGGCLTMVPSEKEVEPKQC
With B3, the “S129 phosphorylation, immunoblot (mAb 11A5), rank of signal” value (from here on “S129 phosphorylation … of signal”) is given as “CKI>GRK6>PLK2>GRK4>GRK5>GRK2”.

B4: CDC7 cell division cycle 7-like 1 (protein)
chain: MEASLGIQMDEPMAFSPQRDRFQAEGSLKKNEQNFKLAGVKKDIEKLYEAVPQLSNVFKIEDKIGEGTFSSVYLATAQLQVGPEEKIALKHLIPTSHPIRIAAELQCLTVAGGQDNVMGVKYCFRKNDHVVIAMPYLEHESFLDILNSLSFQEVREYMLNLFKALKRIHQFGIVHRDVKPSNFLYNRRLKKYALVDFGLAQGTHDTKIELLKFVQSEAQQERCSQNKSHIITGNKIPLSGPVPKELDQQSTTKASVKRPYTNAQIQIKQGKDGKEGSVGLSVQRSVFGERNFNIHSSISHESPAVKLMKQSKTVDVLSRKLATKKKAISTKVMNSAVMRKTASSCPASLTCDCYATDKVCSICLSRRQQVAPRAGTPGFRAPEVLTKCPNQTTAIDMWSAGVIFLSLLSGRYPFYKASDDLTALAQIMTIRGSRETIQAAKTFGKSILCSKEVPAQDLRKLCERLRGMDSSTPKLTSDIQGHASHQPAISEKTDHKASCLVQTPPGQYSGNSFKKGDSNSCEHCFDEYNTNLEGWNEVPDEAYDLLDKLLDLNPASRITAEEALLHPFFKDMSL
With B4, the “in vitro kinase reaction, phosphorylation of alpha-synuclein” value is recorded as “shown to be incapable of directly phosphorylating alpha-synuclein”.

B5: G protein-coupled receptor kinase 6 (protein)
chain: MELENIVANTVLLKAREGGGGNRKGKSKKWRQMLQFPHISQCEELRLSLERDYHSLCERQPIGRLLFREFCATRPELSRCVAFLDGVAEYEVTPDDKRKACGRQLTQNFLSHTGPDLIPEVPRQLVTNCTQRLEQGPCKDLFQELTRLTHEYLSVAPFADYLDSIYFNRFLQWKWLERQPVTKNTFRQYRVLGKGGFGEVCACQVRATGKMYACKKLEKKRIKKRKGEAMALNEKQILEKVNSRFVVSLAYAYETKDALCLVLTLMNGGDLKFHIYHMGQAGFPEARAVFYAAEICCGLEDLHRERIVYRDLKPENILLDDHGHIRISDLGLAVHVPEGQTIKGRVGTVGYMAPEVVKNERYTFSPDWWALGCLLYEMIAGQSPFQQRKKKIKREEVERLVKEVPEEYSERFSPQARSLCSQLLCKDPAERLGCRGGSAREVKEHPLFKKLNFKRLGAGMLEPPFKPDPQAIYCKDVLDIEQFSTVKGVELEPTDQDFYQKFATGSVPIPWQNEMVETECFQELNVFGLDGSVPPDLDWKGQPPAPPKKGLLQRLFSRQDCCGNCSDSEEELPTRL
Turning to B5, the “S129 phosphorylation in vitro, kinases normalized by activity units” value was “The most prominent result came from GRK6”; the “S129 phosphorylation, immunoblot (mAb 11A5), kinase:rAS 1:200 molar” value was “Prominent signals came from GRK6, CKI, CKII and PLK2”; the “S129 phosphorylation … of signal” value was “CKI>GRK6>PLK2>GRK4>GRK5>GRK2”; the “in vitro kinase reaction, phosphorylation of alpha-synuclein at serine 129” value (shortened to “in vitro kinase reaction … at serine 129”) is “capable of phosphorylating alpha-synuclein specifically at serine 129 and did not phosphorylate serine 87 in vitro”. For the same protein, the “phospho ser-129 in vitro, kinases normalized for molarity” value is “roughly equivalent levels of phospho ser-129 between CKI, GRK6 and PLK2”.

B6: GRK7 (protein)
chain: MVDMGALDNLIANTAYLQARKPSDCDSKELQRRRRSLALPGLQGCAELRQKLSLNFHSLCEQQPIGRRLFRDFLATVPTFRKAATFLEDVQNWELAEEGPTKDSALQGLVATCASAPAPGNPQPFLSQAVATKCQAATTEEERVAAVTLAKAEAMAFLQEQPFKDFVTSAFYDKFLQWKLFEMQPVSDKYFTEFRVLGKGGFGEVCAVQVKNTGKMYACKKLDKKRLKKKGGEKMALLEKEILEKVSSPFIVSLAYAFESKTHLCLVMSLMNGGDLKFHIYNVGTRGLDMSRVIFYSAQIACGMLHLHELGIVYRDMKPENVLLDDLGNCRLSDLGLAVEMKGGKPITQRAGTNGYMAPEILMEKVSYSYPVDWFAMGCSIYEMVAGRTPFKDYKEKVSKEDLKQRTLQDEVKFQHDNFTEEAKDICRLFLAKKPEQRLGSREKSDDPRKHHFFKTINFPRLEAGLIEPPFVPDPSVVYAKDIAEIDDFSEVRGVEFDDKDKQFFKNFATGAVPIAWQEEIIETGLFEELNDPNRPTGCEEGNSSKSGVCLLL
For the protein B6, the “S129 phosphorylation, immunoblot (mAb 11A5)” value is given as “Prominent signals came from all GRKs except for GRK7”; the “in vitro kinase reaction … at serine 129” value is “capable of phosphorylating alpha-synuclein specifically at serine 129 and did not phosphorylate serine 87 in vitro”; the “phosphorylation of alpha-synuclein in vitro” value is recorded as “GRK 7 was not able to phosphorylate at appreciable levels”.

B7: adrenergic, beta, receptor kinase 1 (GRK2; BARK1) (protein)
chain: MADLEAVLADVSYLMAMEKSKATPAARASKKILLPEPSIRSVMQKYLEDRGEVTFEKIFSQKLGYLLFRDFCLNHLEEARPLVEFYEEIKKYEKLETEEERVARSREIFDSYIMKELLACSHPFSKSATEHVQGHLGKKQVPPDLFQPYIEEICQNLRGDVFQKFIESDKFTRFCQWKNVELNIHLTMNDFSVHRIIGRGGFGEVYGCRKADTGKMYAMKCLDKKRIKMKQGETLALNERIMLSLVSTGDCPFIVCMSYAFHTPDKLSFILDLMNGGDLHYHLSQHGVFSEADMRFYAAEIILGLEHMHNRFVVYRDLKPANILLDEHGHVRISDLGLACDFSKKKPHASVGTHGYMAPEVLQKGVAYDSSADWFSLGCMLFKLLRGHSPFRQHKTKDKHEIDRMTLTMAVELPDSFSPELRSLLEGLLQRDVNRRLGCLGRGAQEVKESPFFRSLDWQMVFLQKYPPPLIPPRGEVNAADAFDIGSFDEEDTKGIKLLDSDQELYRNFPLTISERWQQEVAETVFDTINAETDRLEARKKAKNKQLGHEEDYALGKDCIMHGYMSKMGNPFLTQWQRRYFYLFPNRLEWRGEGEAPQSLLTMEEIQSVEETQIKERKCLLLKIRGGKQFILQCDSDPELVQWKKELRDAYREAQQLVQRVPKMKNKPRSPVVELSKVPLVQRGSANGL
Regarding B7, the “S129 phosphorylation … of signal” value was “CKI>GRK6>PLK2>GRK4>GRK5>GRK2”; the “in vitro kinase reaction … at serine 129” value is “capable of phosphorylating alpha-synuclein specifically at serine 129 and did not phosphorylate serine 87 in vitro”.

B8: PLK3 (protein)
chain: MEPAAGFLSPRPFQRAAAAPAPPAGPGPPPSALRGPELEMLAGLPTSDPGRLITDPRSGRTYLKGRLLGKGGFARCYEATDTETGSAYAVKVIPQSRVAKPHQREKILNEIELHRDLQHRHIVRFSHHFEDADNIYIFLELCSRKSLAHIWKARHTLLEPEVRYYLRQILSGLKYLHQRGILHRDLKLGNFFITENMELKVGDFGLAARLEPPEQRKKTICGTPNYVAPEVLLRQGHGPEADVWSLGCVMYTLLCGSPPFETADLKETYRCIKQVHYTLPASLSLPARQLLAAILRASPRDRPSIDQILRHDFFTKGYTPDRLPISSCVTVPDLTPPNPARSLFAKVTKSLFGRKKKSKNHAQERDEVSGLVSGLMRTSVGHQDARPEAPAASGPAPVSLVETAPEDSSPRGTLASSGDGFEEGLTVATVVESALCALRNCIAFMPPAEQNPAPLAQPEPLVWVSKWVDYSNKFGFGYQLSSRRVAVLFNDGTHMALSANRKTVHYNPTSTKHFSFSVGAVPRALQPQLGILRYFASYMEQHLMKGGDLPSVEEVEVPAPPLLLQWVKTDQALLMLFSDGTVQVNFYGDHTKLILSGWEPLLVTFVARNRSACTYLASHLRQLGCSPDLRQRLRYALRLLRDRSPA
As for B8, the Fold Change in Percent Synuclein Phosphorylation (ELISA, HEK-293 overexpression) stood at 39.6 fold; the “Proportion of total synuclein that is phoshorylated at ser-129 (ELISA, HEK-293 overexpression)” value is given as 79.2%; the “in vitro biochemical assay, phosphorylation of synuclein” value was “PLK2 and PLK3 having extremely robust phosphorylation of synuclein”.

The record behind these values is patent publication US20110207796.
